We go through 32 sequences from the supplement of paper PMC10201428.

± gives the standard deviation of the averaged measurements.

In series [1] the test system is VchCAST RNA-guided transposition machinery (E. coli BL21(DE3) host, lacZ target). Briefly: relative integration efficiency (T-LR orientation) vs wild-type transposon end (log2 (normalized fold change)); transposon end mutated: right end (5 bp flank + 75 bp right end); higher = more efficient transposition. An outline of the steps:
(§1)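 A T7-driven effector plasmid encoding a CRISPR array, tniQ-cas8-cas7-cas6 and tnsA-tnsB-tnsC was co-transformed into E. coli BL21(DE3) together with a pUC57 mini-transposon donor holding barcoded pools of 1549 left-end or 1849 right-end variants. Transformants were plated with 0.1 mM IPTG at 37°C for 18 h. Illumina sequencing of PCR-amplified input plasmids and genomic integration junctions gave barcode abundances, and relative integration efficiency is their output/input fold change, normalised to reference barcodes and log-transformed.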

For series [2] the test system is unchanged. Briefly: relative integration efficiency (T-RL orientation) vs wild-type transposon end (log2 (normalized fold change)); transposon end mutated: right end (5 bp flank + 75 bp right end); higher = more efficient transposition. The procedure, abridged: as §1

“ACATTTGTTGATACAACCATAAAATGATCATTACACCCATCAATTGATAATTATCCCACCCAATTTAACTATAACGCTCTGATCATAGTCAGACCAACATTGCTACGACCCGTATTCGCACCGACAC”: the “relative integration efficiency (log2)” value in series [1] was 0.874 ± 0.13; in series [2] it was -2.65 ± 0.42.
The matching figures for “ACATTTGTTGATACAACCATAAAATGATCATTACACCCATCAATTGATAATTATCCCACCCCATTTAACTATAACGCTCTGATCATAGTCAGACCAACATTGCTACGACCCGTATTCGCACCGACAC”: 1.04 ± 0.071 and -2.65 ± 0.32.
Consider “ACATTTGTTGATACAACCATAAAATGATCATTACCCCCATAAATTGATAATTATCACACCCAATTTAACTATAACGCTCTGATCATAGTCAGACCAACATTGCTACGACCCGTATTCGCACCGACAC”, for which the “relative integration efficiency (log2)” value in series [1] was 1.59 ± 0.045; in series [2], -1.95 ± 0.25.
In the same order, the values of “ACATTTGTTGATACAACCATAAAATGATCATTACCCCCATAAATTGATAATTATCACACCCCATTTAACTATAACGCTCTGATCATAGTCAGACCAACATTGCTACGACCCGTATTCGCACCGACAC” are 2.423 ± 0.013 and -1.23 ± 0.22.
As for “ACATTTGTTGATACAACCATAAAATGATCATTACCCCCATAAATTGATAATTATCCCACCCAATTTAACTATAACGCTCTGATCATAGTCAGACCAACATTGCTACGACCCGTATTCGCACCGACAC”, the entries for the “relative integration efficiency (log2)” value in series [1] and in series [2] were 1.58 ± 0.2 and -2.11 ± 0.51, respectively.
The matching figures for “ACATTTGTTGATACAACCATAAAATGATCATTACCCCCATAAATTGATAATTATCCCACCCCATTTAACTATAACGCTCTGATCATAGTCAGACCAACATTGCTACGACCCGTATTCGCACCGACAC”: 1.86 ± 0.02 and -1.91 ± 0.36.
“ACATTTGTTGATACAACCATAAAATGATCATTACCCCCATCAATTGATAATTATCACACCCAATTTAACTATAACGCTCTGATCATAGTCAGACCAACATTGCTACGACCCGTATTCGCACCGACAC”: the entries for the “relative integration efficiency (log2)” value in series [1] and in series [2] were -0.291 ± 0.3 and -3.35 ± 0.24, respectively.
In the same order, the values of “ACATTTGTTGATACAACCATAAAATGATCATTACCCCCATCAATTGATAATTATCACACCCCATTTAACTATAACGCTCTGATCATAGTCAGACCAACATTGCTACGACCCGTATTCGCACCGACAC” are -0.533 ± 0.18 and -3.74 ± 0.21.
On to “ACATTTGTTGATACAACCATAAAATGATCATTACCCCCATCAATTGATAATTATCCCACCCAATTTAACTATAACGCTCTGATCATAGTCAGACCAACATTGCTACGACCCGTATTCGCACCGACAC”, for which the “relative integration efficiency (log2)” value in series [1] is 0.227 ± 0.14; in series [2], -3.71 ± 0.29.
Turning to “ACATTTGTTGATACAACCATAAAATGATCATTACCCCCATCAATTGATAATTATCCCACCCCATTTAACTATAACGCTCTGATCATAGTCAGACCAACATTGCTACGACCCGTATTCGCACCGACAC”, the “relative integration efficiency (log2)” value is -0.338 ± 0.22 in series [1] and -3.97 ± 0.23 in series [2].
In the same order, the values of “ACATTTGTTGATACAACCATAAAATGATCATTCACCCATAAATTGATAATTATCACACCCACATTTAACTATAACGCTCTGATCATAGTCAGACCAACATTGCTACGACCCGTATTCGCACCGACAC” are 0.654 ± 0.11 and -3.25 ± 0.26.
The matching figures for “ACATTTGTTGATACAACCATAAAATGATCATTCACCCCTAAATTGATAATTATCACACCCACATTTAACTATAACGCTCTGATCATAGTCAGACCAACATTGCTACGACCCGTATTCGCACCGACAC”: -0.712 ± 0.069 and -4.31 ± 0.082.
Turning to “ACATTTGTTGATACAACCATAAAATGATCCGGACACCCATAAATTGATAATTATCACACCCATAAATTGATATTGCCTCTGATCATAGTCAGACCAACATTGCTACGACCCGTATTCGCACCGACAC”, the “relative integration efficiency (log2)” value in series [1] is -0.898 ± 0.013; in series [2] it was -1.23 ± 0.15.
In the same order, the values of “ACATTTGTTGATACAACCATAAAATGATCCGGCACAAACGCCCGGTCGCCGGCGACACAAACGCCCGGTCGCGGTAAGAGGATCATAGTCAGACCAACATTGCTACGACCCGTATTCGCACCGACAC” are 0.37 ± 0.064 and -2.68 ± 0.12.
For “ACATTTGTTGATACAACCATAAAATGATCCGGCCACCCATAAATTGATCCGGCTCACACCCATAAATTGATCGGTACTCTGATCATAGTCAGACCAACATTGCTACGACCCGTATTCGCACCGACAC”, the entries for the “relative integration efficiency (log2)” value in series [1] and in series [2] were -0.827 ± 0.14 and -2.73 ± 0.41, respectively.
In the same order, the values of “ACATTTGTTGATACAACCATAAAATGATCCTTACACCCATAAATTGATAATTATCACACCCATAAATTGATATTGCCTCTGATCATAGTCAGACCAACATTGCTACGACCCGTATTCGCACCGACAC” are -0.545 ± 0.46 and -1.03 ± 0.14.
In the same order, the values of “ACATTTGTTGATACAACCATAAAATGATTATTACACCCATAAATTGATAATAATGACACCGAATTTAACTATAACGCTCTGATCATAGTCAGACCAACATTGCTACGACCCGTATTCGCACCGACAC” are 2.95 ± 0.061 and -0.616 ± 0.36.
The matching figures for “ACATTTGTTGATACAACCATAAAATGATTATTACACCCATAAATTGATAATGATGACACCGAATTTAACTATAACGCTCTGATCATAGTCAGACCAACATTGCTACGACCCGTATTCGCACCGACAC”: 2.38 ± 0.12 and -1.31 ± 0.35.
With “ACATTTGTTGATACAACCATAAAATGATTATTACACCCATAAATTGATAATTGTGACACCGAATTTAACTATAACGCTCTGATCATAGTCAGACCAACATTGCTACGACCCGTATTCGCACCGACAC”, the figures for the “relative integration efficiency (log2)” value in series [1] and in series [2] were 2.3 ± 0.095 and -1.18 ± 0.23, respectively.
In the same order, the values of “ACATTTGTTGATACAACCATAAAATGATTATTACACCCATAAATTGATTATTATCACACCCATAAATTGATTTTGCCTCTGATCATAGTCAGACCAACATTGCTACGACCCGTATTCGCACCGACAC” are 0.0804 ± 0.34 and -0.91 ± 0.14.
For the sequence “ACATTTGTTGATACAACCATAAAATGATTATTACACCCATTAATTGATAATTATCACACCCAATTTAACTATAACGCTCTGATCATAGTCAGACCAACATTGCTACGACCCGTATTCGCACCGACAC”, the “relative integration efficiency (log2)” value in series [1] was 2.31 ± 0.036; in series [2], -1.4 ± 0.34.
In the same order, the values of “ACATTTGTTGATACAACCATAAAATGATTTAAACACCCATAAATTGATAATTATCACACCCATAAATTGATATTGCCTCTGATCATAGTCAGACCAACATTGCTACGACCCGTATTCGCACCGACAC” are -0.234 ± 0.29 and -0.3814 ± 0.0024.
The matching figures for “ACATTTGTTGATACAACCATAAAATGATTTAATCACCCATAAATTGATTTAATTCACACCCATAAATTGATTAACGCTCTGATCATAGTCAGACCAACATTGCTACGACCCGTATTCGCACCGACAC”: -0.00841 ± 0.34 and -1.13 ± 0.18.
“ACATTTGTTGATACAACCATAAAATGATTTTTACACCCATAAATTGATAATTATCACACCCATAAATTGATATTGCCTCTGATCATAGTCAGACCAACATTGCTACGACCCGTATTCGCACCGACAC”: the figures for the “relative integration efficiency (log2)” value in series [1] and in series [2] were 0.183 ± 0.26 and -0.483 ± 0.081, respectively.
For “ACATTTGTTGATACAACCATAAAATGCGAATTACACCCATAAATTGATAATTATCACACCCATAAATTGATATTGCCTCTGATCATAGTCAGACCAACATTGCTACGACCCGTATTCGCACCGACAC”, the “relative integration efficiency (log2)” value was -0.35 ± 0.095 in series [1] and -0.945 ± 0.22 in series [2].
In the same order, the values of “ACATTTGTTGATACAACCATAAAATGCGCCGGCACAAACGCCCGGTCGCCGGCGACACAAACGCCCGGTCGCGGTAAGAGGATCATAGTCAGACCAACATTGCTACGACCCGTATTCGCACCGACAC” are -0.733 ± 0.15 and -3.75 ± 0.078.
In the case of “ACATTTGTTGATACAACCATAAAATGCGCCGGCCACCCATAAATTGCGCCGGCTCACACCCATAAATTGCGCGGTACTCTGATCATAGTCAGACCAACATTGCTACGACCCGTATTCGCACCGACAC”, the figures for the “relative integration efficiency (log2)” value in series [1] and in series [2] were -3.06 ± 0.22 and -5.16 ± 0.24, respectively.
In the case of “ACATTTGTTGATACAACCATAAAATGCGCCTTACACCCATAAATTGATAATTATCACACCCATAAATTGATATTGCCTCTGATCATAGTCAGACCAACATTGCTACGACCCGTATTCGCACCGACAC”, the “relative integration efficiency (log2)” value in series [1] was -1.01 ± 0.31; in series [2], -1.4 ± 0.083.
Take “ACATTTGTTGATACAACCATAAAATGCTAATTACACCCATAAATTGCTAATTATCACACCCATAAATTGCTATTGCCTCTGATCATAGTCAGACCAACATTGCTACGACCCGTATTCGCACCGACAC”: the “relative integration efficiency (log2)” value in series [1] is -0.567 ± 0.21; in series [2], -1.55 ± 0.13.
In the same order, the values of “ACATTTGTTGATACAACCATAAAATGGTAATTACACCCATACATTGATAATTATCACACCCAATTTAACTATAACGCTCTGATCATAGTCAGACCAACATTGCTACGACCCGTATTCGCACCGACAC” are 0.71 ± 0.05 and -2.58 ± 0.27.
In the same order, the values of “ACATTTGTTGATACAACCATAAAATGGTAATTACACCCCTAAATTGATAATTATCACACCCAATTTAACTATAACGCTCTGATCATAGTCAGACCAACATTGCTACGACCCGTATTCGCACCGACAC” are 0.104 ± 0.26 and -3.07 ± 0.34.
Take “ACATTTGTTGATACAACCATAAAATGGTAATTACACCCCTACATTGATAATTATCACACCCAATTTAACTATAACGCTCTGATCATAGTCAGACCAACATTGCTACGACCCGTATTCGCACCGACAC”: the “relative integration efficiency (log2)” value in series [1] was -0.856 ± 0.38; in series [2] it was -3.67 ± 0.066.
